Measurements published in publication PMC10828781, “Genome variation and LTR-RT analyses of an ancient peach landrace reveal mechanism of blood-flesh fruit color formation and fruit maturity date advancement”.

Molecular target: PpBL (Prunus persica, UniProt M5WDM1 1-437)
Experiment: EMSA; 5x, 10x, 50x competitor probe; EMSA: room temperature 30 min, 6% native PAGE in 0.5x TBE at 4 C, 60 V 1 h, binding buffer not stated; pull-down: 1 ug DNA-bead complex with 300 ul nuclear proteins, 20 min room temperature
Settings: protein: recombinant; (pGEX-6p-1 vector); label: biotin

Chain of PpBL (M5WDM1 entry or part of it): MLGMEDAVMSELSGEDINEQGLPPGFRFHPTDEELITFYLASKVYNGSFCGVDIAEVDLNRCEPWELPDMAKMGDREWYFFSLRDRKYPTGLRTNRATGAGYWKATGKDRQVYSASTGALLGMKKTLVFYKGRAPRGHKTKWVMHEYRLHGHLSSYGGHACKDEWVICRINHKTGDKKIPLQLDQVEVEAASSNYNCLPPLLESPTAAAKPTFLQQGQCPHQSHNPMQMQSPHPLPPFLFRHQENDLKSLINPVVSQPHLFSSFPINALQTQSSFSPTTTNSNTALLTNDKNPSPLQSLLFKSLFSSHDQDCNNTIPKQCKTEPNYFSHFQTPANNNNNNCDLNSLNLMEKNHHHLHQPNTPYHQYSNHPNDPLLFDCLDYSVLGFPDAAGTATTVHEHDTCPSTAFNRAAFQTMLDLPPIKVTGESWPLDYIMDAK

B1: PpACO1 promoter probe (dsDNA)
DNA 1: ACAGTAATTTGCTTGCTTTC
DNA 2: GAAAGCAAGCAAATTACTGT
B1: binds.

B2: PpACS1 promoter probe (dsDNA)
DNA 1: TACAACACGCAAGCAATTAC
DNA 2: GTAATTGCTTGCGTGTTGTA
B2: binds.
